According to article PMC5487381, “Thioredoxin A Is Essential for Motility and Contributes to Host Infection of Listeria monocytogenes via Redox Interactions” (Frontiers in Cellular and Infection Microbiology, 2017):

Target: T1, PrfA, the central virulence regulator of Listeria (Listeria monocytogenes EGD-e, UniProt P22262 1-237)
T1 construct: PrfA, virulence regulator of the Crp/Fnr family, L. monocytogenes EGD-e, full-length ORF; The methods describe the recombinant proteins in general, not PrfA by name
T1 sequence: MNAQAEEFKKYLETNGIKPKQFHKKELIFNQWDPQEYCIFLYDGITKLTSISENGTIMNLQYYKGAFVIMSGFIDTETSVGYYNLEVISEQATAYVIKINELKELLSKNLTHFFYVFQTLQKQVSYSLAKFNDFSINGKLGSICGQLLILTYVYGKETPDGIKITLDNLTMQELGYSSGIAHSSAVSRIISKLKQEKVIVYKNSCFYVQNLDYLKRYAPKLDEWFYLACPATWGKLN
Assay: ITC; TrxA, TrxAox or TrxA active-site mutants (80-200 uM) in the syringe, PrfA, MogR, GmaR or MogR and GmaR (8-20 uM) in the cuvette; 25 C; 25 mM Tris-HCl pH 7.5, 100 mM NaCl; 15 uL injections, 300 s spacing; 1:1 binding model
Settings: both partners purified

B1: Listeria monocytogenes thioredoxin A (TrxA) (enzyme, Listeria monocytogenes EGD-e, UniProt P0A4L3 1-103, looked up)
chain: MVKEITDATFEQETSEGLVLTDFWATWCGPCRMVAPVLEEIQEERGEALKIVKMDVDENPETPGSFGVMSIPTLLIKKDGEVVETIIGYRPKEELDEVINKYV
notes: Thioredoxin A (TrxA, Lmo1233) of L. monocytogenes EGD-e, full-length ORF; pET30a(+) may add further vector-encoded residues between the His tag and the ORF; also called Lmo1233
**Q.** Does B1 bind?
**A.** Result: binds
